Consider 8 molecules from patent US20150344570A1 (published 2015).

The labels stand for the following.
T1: FcγRIIb extracellular domain with C-terminal His tag (human, UniProt P31994 43-217)
T1 construct: extracellular domain; also called FcgRIIb; 2b
T1 sequence (looked up): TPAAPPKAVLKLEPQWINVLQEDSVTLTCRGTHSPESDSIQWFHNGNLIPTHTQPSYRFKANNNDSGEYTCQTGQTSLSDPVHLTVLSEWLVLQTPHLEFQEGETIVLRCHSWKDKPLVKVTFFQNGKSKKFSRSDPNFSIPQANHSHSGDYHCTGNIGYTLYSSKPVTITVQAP

B1: GpH7-B3 variant T335_13S/GpL16-k0 (antibody, human IgG1, kappa)
heavy: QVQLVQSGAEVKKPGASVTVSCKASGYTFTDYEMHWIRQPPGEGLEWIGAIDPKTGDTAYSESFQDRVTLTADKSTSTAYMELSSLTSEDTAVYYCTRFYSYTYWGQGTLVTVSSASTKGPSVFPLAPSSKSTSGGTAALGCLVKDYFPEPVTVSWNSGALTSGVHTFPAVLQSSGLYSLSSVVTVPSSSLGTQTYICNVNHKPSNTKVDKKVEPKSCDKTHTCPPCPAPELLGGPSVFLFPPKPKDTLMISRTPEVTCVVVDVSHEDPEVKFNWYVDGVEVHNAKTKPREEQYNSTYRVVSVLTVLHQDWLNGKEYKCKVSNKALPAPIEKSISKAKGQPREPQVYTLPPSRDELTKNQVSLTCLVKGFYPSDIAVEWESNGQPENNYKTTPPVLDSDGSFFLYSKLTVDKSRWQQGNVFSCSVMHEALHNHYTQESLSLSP
light: DIVMTQSPLSLPVTPGEPASISCQASESLVHSNRNTYLHWYLQKPGQSPQLLIYKVSNRFSGVPDRFSGSGSGTDFTLKISRVEAEDVGVYYCSQNTHVPPTFGQGTKVEIERTVAAPSVFIFPPSDEQLKSGTASVVCLLNNFYPREAKVQWKVDNALQSGNSQESVTEQDSKDSTYSLSSTLTLSKADYEKHKVYACEVTHQGLSSPVTKSFNRGEC
notes: also called Ho Ab T335_13S
B2: GpH7-B3 variant T335_20W/GpL16-k0 (antibody, human IgG1, kappa)
heavy: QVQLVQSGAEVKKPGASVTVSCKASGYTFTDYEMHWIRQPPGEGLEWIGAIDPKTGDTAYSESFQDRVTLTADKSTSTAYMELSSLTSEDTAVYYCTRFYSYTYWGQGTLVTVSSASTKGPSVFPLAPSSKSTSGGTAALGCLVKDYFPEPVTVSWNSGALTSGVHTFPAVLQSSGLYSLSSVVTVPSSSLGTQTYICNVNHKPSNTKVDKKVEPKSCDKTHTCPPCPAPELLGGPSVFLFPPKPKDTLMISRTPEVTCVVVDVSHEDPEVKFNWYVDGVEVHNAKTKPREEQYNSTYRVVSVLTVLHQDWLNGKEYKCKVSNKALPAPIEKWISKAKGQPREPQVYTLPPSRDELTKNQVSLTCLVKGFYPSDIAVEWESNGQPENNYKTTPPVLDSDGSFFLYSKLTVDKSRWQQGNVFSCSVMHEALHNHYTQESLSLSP
light: DIVMTQSPLSLPVTPGEPASISCQASESLVHSNRNTYLHWYLQKPGQSPQLLIYKVSNRFSGVPDRFSGSGSGTDFTLKISRVEAEDVGVYYCSQNTHVPPTFGQGTKVEIERTVAAPSVFIFPPSDEQLKSGTASVVCLLNNFYPREAKVQWKVDNALQSGNSQESVTEQDSKDSTYSLSSTLTLSKADYEKHKVYACEVTHQGLSSPVTKSFNRGEC
notes: also called Ho Ab T335_20W
B3: GpH7-B3 variant T335_16H/GpL16-k0 (antibody, human IgG1, kappa)
heavy: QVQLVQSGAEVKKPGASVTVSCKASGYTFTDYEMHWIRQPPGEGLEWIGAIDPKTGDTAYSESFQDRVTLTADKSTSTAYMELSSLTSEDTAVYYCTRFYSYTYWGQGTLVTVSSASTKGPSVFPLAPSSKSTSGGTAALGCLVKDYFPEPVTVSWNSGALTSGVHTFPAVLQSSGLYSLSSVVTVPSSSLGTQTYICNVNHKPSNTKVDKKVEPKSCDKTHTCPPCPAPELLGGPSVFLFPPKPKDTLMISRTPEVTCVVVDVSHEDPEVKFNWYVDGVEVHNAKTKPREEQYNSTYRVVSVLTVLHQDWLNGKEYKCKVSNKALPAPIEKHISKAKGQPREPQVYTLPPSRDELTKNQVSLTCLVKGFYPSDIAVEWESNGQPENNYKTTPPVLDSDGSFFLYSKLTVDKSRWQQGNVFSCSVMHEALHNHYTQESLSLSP
light: DIVMTQSPLSLPVTPGEPASISCQASESLVHSNRNTYLHWYLQKPGQSPQLLIYKVSNRFSGVPDRFSGSGSGTDFTLKISRVEAEDVGVYYCSQNTHVPPTFGQGTKVEIERTVAAPSVFIFPPSDEQLKSGTASVVCLLNNFYPREAKVQWKVDNALQSGNSQESVTEQDSKDSTYSLSSTLTLSKADYEKHKVYACEVTHQGLSSPVTKSFNRGEC
notes: also called Ho Ab T335_16H
B4: GpH7-B3 variant T335_18N/GpL16-k0 (antibody, human IgG1, kappa)
heavy: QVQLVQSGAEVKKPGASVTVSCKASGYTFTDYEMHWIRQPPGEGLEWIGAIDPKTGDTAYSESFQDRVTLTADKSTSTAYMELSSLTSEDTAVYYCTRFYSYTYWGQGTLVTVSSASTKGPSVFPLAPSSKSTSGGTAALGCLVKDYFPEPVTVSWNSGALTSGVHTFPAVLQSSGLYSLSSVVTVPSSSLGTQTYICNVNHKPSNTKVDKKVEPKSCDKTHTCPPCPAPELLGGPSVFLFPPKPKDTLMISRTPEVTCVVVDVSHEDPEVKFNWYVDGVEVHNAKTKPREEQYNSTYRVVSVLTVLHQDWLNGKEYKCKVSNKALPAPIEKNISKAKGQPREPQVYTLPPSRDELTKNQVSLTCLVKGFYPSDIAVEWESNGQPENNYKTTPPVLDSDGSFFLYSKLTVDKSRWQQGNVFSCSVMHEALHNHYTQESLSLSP
light: DIVMTQSPLSLPVTPGEPASISCQASESLVHSNRNTYLHWYLQKPGQSPQLLIYKVSNRFSGVPDRFSGSGSGTDFTLKISRVEAEDVGVYYCSQNTHVPPTFGQGTKVEIERTVAAPSVFIFPPSDEQLKSGTASVVCLLNNFYPREAKVQWKVDNALQSGNSQESVTEQDSKDSTYSLSSTLTLSKADYEKHKVYACEVTHQGLSSPVTKSFNRGEC
notes: also called Ho Ab T335_18N
B5: GpH7-B3 variant V266_06M/GpL16-k0 (antibody, human IgG1, kappa)
heavy: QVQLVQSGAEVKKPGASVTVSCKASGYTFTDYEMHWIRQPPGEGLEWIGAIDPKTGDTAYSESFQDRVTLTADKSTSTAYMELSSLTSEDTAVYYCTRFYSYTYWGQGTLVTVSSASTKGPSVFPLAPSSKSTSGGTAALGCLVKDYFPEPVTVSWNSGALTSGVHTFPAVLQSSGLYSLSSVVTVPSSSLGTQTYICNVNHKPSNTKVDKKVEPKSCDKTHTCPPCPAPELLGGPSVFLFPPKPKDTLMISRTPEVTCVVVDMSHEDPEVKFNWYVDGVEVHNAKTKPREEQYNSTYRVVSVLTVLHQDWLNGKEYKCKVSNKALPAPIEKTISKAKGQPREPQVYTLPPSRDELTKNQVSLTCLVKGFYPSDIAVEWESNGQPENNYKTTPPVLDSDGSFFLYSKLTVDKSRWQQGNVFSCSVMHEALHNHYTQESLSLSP
light: DIVMTQSPLSLPVTPGEPASISCQASESLVHSNRNTYLHWYLQKPGQSPQLLIYKVSNRFSGVPDRFSGSGSGTDFTLKISRVEAEDVGVYYCSQNTHVPPTFGQGTKVEIERTVAAPSVFIFPPSDEQLKSGTASVVCLLNNFYPREAKVQWKVDNALQSGNSQESVTEQDSKDSTYSLSSTLTLSKADYEKHKVYACEVTHQGLSSPVTKSFNRGEC
notes: also called Ho Ab V266_06M
B6: GpH7-B3 variant Y296_20W/GpL16-k0 (antibody, human IgG1, kappa)
heavy: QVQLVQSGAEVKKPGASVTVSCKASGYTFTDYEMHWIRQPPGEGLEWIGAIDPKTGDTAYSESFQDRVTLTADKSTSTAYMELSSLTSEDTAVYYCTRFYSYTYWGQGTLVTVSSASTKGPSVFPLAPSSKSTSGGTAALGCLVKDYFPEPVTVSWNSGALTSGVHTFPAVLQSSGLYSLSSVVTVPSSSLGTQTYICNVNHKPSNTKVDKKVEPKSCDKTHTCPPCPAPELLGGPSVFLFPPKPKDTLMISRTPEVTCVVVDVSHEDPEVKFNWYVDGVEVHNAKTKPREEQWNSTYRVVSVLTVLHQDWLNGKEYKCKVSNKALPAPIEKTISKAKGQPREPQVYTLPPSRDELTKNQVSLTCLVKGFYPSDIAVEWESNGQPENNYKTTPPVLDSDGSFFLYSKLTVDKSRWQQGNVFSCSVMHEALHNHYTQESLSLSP
light: DIVMTQSPLSLPVTPGEPASISCQASESLVHSNRNTYLHWYLQKPGQSPQLLIYKVSNRFSGVPDRFSGSGSGTDFTLKISRVEAEDVGVYYCSQNTHVPPTFGQGTKVEIERTVAAPSVFIFPPSDEQLKSGTASVVCLLNNFYPREAKVQWKVDNALQSGNSQESVTEQDSKDSTYSLSSTLTLSKADYEKHKVYACEVTHQGLSSPVTKSFNRGEC
notes: also called Ho Ab Y296_20W
B7: GpH7-B3 variant T335_19Q/GpL16-k0 (antibody, human IgG1, kappa)
heavy: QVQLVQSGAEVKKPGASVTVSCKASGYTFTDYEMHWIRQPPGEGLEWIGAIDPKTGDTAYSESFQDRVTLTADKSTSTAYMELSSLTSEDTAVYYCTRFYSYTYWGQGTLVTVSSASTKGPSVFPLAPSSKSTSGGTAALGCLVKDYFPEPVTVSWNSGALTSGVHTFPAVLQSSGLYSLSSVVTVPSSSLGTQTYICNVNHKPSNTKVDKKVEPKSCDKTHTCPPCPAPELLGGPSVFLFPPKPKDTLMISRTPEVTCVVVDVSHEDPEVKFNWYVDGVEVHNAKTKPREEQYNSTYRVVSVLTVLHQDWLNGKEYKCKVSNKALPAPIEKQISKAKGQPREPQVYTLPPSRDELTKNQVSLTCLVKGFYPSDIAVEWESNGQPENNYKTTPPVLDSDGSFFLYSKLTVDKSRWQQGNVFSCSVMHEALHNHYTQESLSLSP
light: DIVMTQSPLSLPVTPGEPASISCQASESLVHSNRNTYLHWYLQKPGQSPQLLIYKVSNRFSGVPDRFSGSGSGTDFTLKISRVEAEDVGVYYCSQNTHVPPTFGQGTKVEIERTVAAPSVFIFPPSDEQLKSGTASVVCLLNNFYPREAKVQWKVDNALQSGNSQESVTEQDSKDSTYSLSSTLTLSKADYEKHKVYACEVTHQGLSSPVTKSFNRGEC
notes: also called Ho Ab T335_19Q
B8: GpH7-B3 variant T335_15Y/GpL16-k0 (antibody, human IgG1, kappa)
heavy: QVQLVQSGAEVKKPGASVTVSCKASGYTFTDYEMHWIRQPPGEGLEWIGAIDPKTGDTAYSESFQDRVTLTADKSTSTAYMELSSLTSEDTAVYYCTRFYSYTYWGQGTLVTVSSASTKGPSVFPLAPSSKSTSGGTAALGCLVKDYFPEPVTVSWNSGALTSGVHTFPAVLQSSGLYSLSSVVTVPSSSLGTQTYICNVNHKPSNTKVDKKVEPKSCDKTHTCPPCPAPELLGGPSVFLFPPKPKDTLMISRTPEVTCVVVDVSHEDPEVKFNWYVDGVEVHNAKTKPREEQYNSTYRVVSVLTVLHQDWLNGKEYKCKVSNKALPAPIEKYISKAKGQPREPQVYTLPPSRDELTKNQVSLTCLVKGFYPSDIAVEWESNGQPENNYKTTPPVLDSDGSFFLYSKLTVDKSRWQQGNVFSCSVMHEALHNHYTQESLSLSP
light: DIVMTQSPLSLPVTPGEPASISCQASESLVHSNRNTYLHWYLQKPGQSPQLLIYKVSNRFSGVPDRFSGSGSGTDFTLKISRVEAEDVGVYYCSQNTHVPPTFGQGTKVEIERTVAAPSVFIFPPSDEQLKSGTASVVCLLNNFYPREAKVQWKVDNALQSGNSQESVTEQDSKDSTYSLSSTLTLSKADYEKHKVYACEVTHQGLSSPVTKSFNRGEC
notes: also called Ho Ab T335_15Y

In the test the target is T1, FcγRIIb extracellular domain with …. Nature of the test: SPR (Biacore), relative binding. As for the experimental part:
Analysis of interaction between objective antibody and the FcγR was carried out using Biacore T100 (GE Healthcare). HBS-EP+ (GE Healthcare) was used as the running buffer, and the measurement temperature was set to 25° C. Chips produced by immobilizing the antigen peptide by the amine coupling method to a Series S Sencor Chip CM5 (GE Healthcare), or alternatively, chips produced by allowing preliminarily biotinylated antigen peptides to interact with and immobilize onto a Series S Sensor Chip SA (certified) (GE Healthcare) were used. Antibodies of interest were captured onto an antigen peptide-immobilized chip, and allowed to interact to each FcγR diluted with running buffer. To regenerate and repeatedly use the chip, the antibodies captured on the chip were washed off by reacting 10 mM glycine-HCl, pH 1.5.
With B1, the Ho/Con_2b is 95.2 % of HoCon Ab GpH7-B3/GpL16-k0.
Regarding B2, the Ho/Con_2b is 94.4 % of HoCon Ab GpH7-B3/GpL16-k0.
With B3, the Ho/Con_2b is 97.2 % of HoCon Ab GpH7-B3/GpL16-k0.
The figure for B4 is 96.1 % of HoCon Ab GpH7-B3/GpL16-k0; for B5 it is 231 % of HoCon Ab GpH7-B3/GpL16-k0.
In the case of B6, the Ho/Con_2b was 103 % of HoCon Ab GpH7-B3/GpL16-k0.
The figure for B7 is 97.3 % of HoCon Ab GpH7-B3/GpL16-k0; for B8 it is 104 % of HoCon Ab GpH7-B3/GpL16-k0.
